Measurements from PMC11863921 (BMC Biology, 2025).
Blank lines part the entries; values can stand above or below the substance they belong to.

Assays:
[1] = test system: ovarian fragments of A. cf. solaris; assay: In vitro spawning assay with ovarian fragments of A. cf. solaris; details: 1 h, semi-quantitative
Text: Adult A. cf. solaris were collected from the Great Barrier Reef by Pacific Marine Group divers associated with the Great Barrier Reef Marine Park Authority (GBRMPA) before being transported to the University of the Sunshine Coast aquarium facility. Animals were briefly maintained in a re-circulating protein-skimmed and aerated saltwater system of approximately 1500 L. The animals used were approximately 25–55 cm in diameter and kept unfed for the duration of the experiment. The gender and ovarian maturation stage was determined by using a minor gonad tissue biopsy technique and, thereafter, animals were individually segregated in a flowthrough aerated tank filled with approximately 55 L of filtered seawater for a minimum of 24 h to recover and acclimatize.
AsoRGP1 and AsoRGP2 were synthesized as described previously. In addition, a modified form of AsoRGP2 was synthesized in which the N-terminal residue of the A-chain (glutamine, Q) was substituted with pyroglutamate (pQ), recognizing the possibility of this potential post-translational modification. […] In vitro spawning assays using ovarian fragments were performed following procedures described previously. In brief, the ovaries were excised and cut using scissors into small fragments containing only a few lobes. The ovarian fragments were then incubated in artificial seawater containing RGP-type peptides at a range of concentrations (2 × 10^−10–2 × 10^−6 M) for 1 h. As a control experiment, ovarian fragments were incubated in artificial seawater alone. The samples were examined to determine whether or not in vitro spawning had occurred and were scored as follows: (+ + +) spawning occurred and most oocytes had matured; (+ +) about 50% of oocytes had matured, ( +) a few oocytes had matured and ( −): no spawning occurred. […] Means ± standard error of mean (SEM) were determined from four separate assays using ovaries from four different animals.

[2] = biological target: Acanthaster cf. solaris relaxin family peptide receptor/leucine-rich repeat G protein-coupled receptor 3, N-terminally modified (prolactin signal peptide, FLAG tag) (Acanthaster cf. solaris)
[3] = biological target: modified ArubRXFP/LGR3 (N-terminal region with the predicted internal signal peptide replaced by the prolactin precursor signal peptide) (Asterias rubens)
[4] = biological target: Asterias rubens relaxin family peptide receptor/leucine-rich repeat G protein-coupled receptor 3 (isoform X2) (Asterias rubens)
[5] = biological target: T1, AsolRXFP/LGR3 (Acanthaster planci, UniProt A0A8B7XXQ8); assay: CRE reporter gene assay in CHO cells stably expressing AsolRXFP/LGR3; type: cell-based, A. cf. solaris; details: CHO-AsolRXFP/LGR3 cells, increasing concentrations
T1 sequence (A0A8B7XXQ8 1-847): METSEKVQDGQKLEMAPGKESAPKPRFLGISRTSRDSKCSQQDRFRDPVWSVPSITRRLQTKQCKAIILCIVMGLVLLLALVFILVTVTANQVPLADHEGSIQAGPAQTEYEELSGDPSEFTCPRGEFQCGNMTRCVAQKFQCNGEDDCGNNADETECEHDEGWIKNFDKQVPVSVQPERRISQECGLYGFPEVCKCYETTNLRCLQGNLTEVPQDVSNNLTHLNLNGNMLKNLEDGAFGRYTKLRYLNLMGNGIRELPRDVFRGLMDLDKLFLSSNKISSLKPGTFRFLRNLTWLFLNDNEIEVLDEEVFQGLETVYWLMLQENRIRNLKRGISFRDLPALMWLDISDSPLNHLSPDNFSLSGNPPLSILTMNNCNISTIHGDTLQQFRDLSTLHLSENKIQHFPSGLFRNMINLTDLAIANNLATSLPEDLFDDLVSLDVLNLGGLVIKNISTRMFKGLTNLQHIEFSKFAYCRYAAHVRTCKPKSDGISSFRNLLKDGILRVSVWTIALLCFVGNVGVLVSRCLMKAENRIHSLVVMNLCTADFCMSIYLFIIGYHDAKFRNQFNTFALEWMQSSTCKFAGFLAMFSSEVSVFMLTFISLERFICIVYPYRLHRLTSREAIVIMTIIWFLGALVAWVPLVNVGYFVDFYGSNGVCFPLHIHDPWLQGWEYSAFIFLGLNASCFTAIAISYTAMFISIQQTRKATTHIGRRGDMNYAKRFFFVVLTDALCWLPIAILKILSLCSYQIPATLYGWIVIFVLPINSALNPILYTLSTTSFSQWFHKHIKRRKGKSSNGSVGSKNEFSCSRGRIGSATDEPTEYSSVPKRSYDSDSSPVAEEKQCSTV
Procedure: Human embryonic kidney (HEK) 293T cells were grown in complete Dulbecco’s modified Eagle medium (DMEM; Gibco) and Chinese hamster ovary (CHO) cells in complete DMEM/F12 (Gibco). Media was supplemented with 10% fetal bovine serum, 1% penicillin/streptomycin, and 1% L‐glutamine (complete media; All from Gibco). HEK-293T cells were transfected with LipofectAMINE 2000 (Invitrogen) and CHO cells with CHO TransIT and CHO-Mojo (Mirus), both according to the manufacturer’s instructions.
CHO and HEK293T cells stably expressing AsolRXFP/LGR3 were generated by lentiviral transduction. HEK293T cells were plated in 10 cm dishes for transfection with pLenti X1-Ef1α-COT-RXFP-like 2-IRES-GFP along with the lentiviral packaging and envelope plasmids pMDL, pRSV‐Rev, and pCMV‐VSV‐G, using Lipofectamine 2000. The following day, media containing lentivirus was harvested and filtered through a 0.45 μm syringe filter. Fresh CHO and HEK293T cells in 10 cm plates were transduced by replacing the cell culture media with the filtered media containing lentivirus, mixed with 4 μg/mL hexadimethrine bromide (Polybrene) to increase transduction efficiency. Three rounds of transduction were performed over 32 h, before cells were allowed to recover for three days in complete media. Transduced cells were sorted from non-transduced cells using the GFP reporter by fluorescence-activated cell sorting (FACS), using a Becton Dickinson FACSAria III as previously described. Single, live cells with low GFP expression were selected to represent low AsolRXFP/LGR3 expression and were subsequently grown to confluency in a T175 flask and cryopreserved.
The ability of the A. cf. solaris receptors to respond to A. cf. solaris RGP1 and RGP2 peptides was tested using a pCRE β-galactosidase reporter gene assay in CHO cells stably expressing AsolRXFP/LGR3 or HEK-293T cells transfected with AsolRXFP/LGR4 (long) or AsolRXFP/LGR4 (short), as described in detail previously. Importantly, the pCRE β-galactosidase reporter gene assay measures both Gs and Gq activation downstream of GPCR activation by monitoring CREB-mediated gene transcription. Cells were seeded in 96 well plates and were left to grow overnight at 37 °C in an incubator with 5% CO2. The next day the cells were transfected with different amounts of the pCRE reporter gene DNA [57] and/or pcDNA3.1 receptor constructs, as described above, and were left to grow overnight in an incubator. Triplicate wells in each plate were transfected with the equivalent amount of pCRE reporter gene DNA and pcDNA3.1 without a receptor-encoding insert as the background CRE activity control. The next day cells were exposed in triplicate wells to increasing concentrations of peptides diluted in media for 6 h at 37 °C in an incubator. Triplicate parallel wells contained 5 µM forskolin and blank media as positive and negative controls, respectively. At the end of the incubation period, the media was aspirated, and the plate was stored at − 80 °C until development. Plates were thawed for the development of β-galactosidase activity, as described previously, with absorbance being read at 570 nm on an Epoch 2 microplate reader. The data were analyzed as the percentage of the response induced by 5 µM forskolin and pooled followed by fitting to a three-parameter sigmoidal dose–response curve using GraphPad Prism 10. Experiments were performed at least three times with triplicate determinations in each assay (Additional file 17: Dataset S10).

Substance: Acanthaster cf. solaris Relaxin-like gonad-stimulating peptide 2 modified with pyroglutamate replacing glutamine at the N-terminus of the A-chain [Asol-pQ-RGP2]
relative potency in inducing shedding of mature eggs / spawning ([1]; compared with RGP1 or unmodified RGP2): less potent than AsolRGP1 and AsolRGP2 | relative potency in inducing shedding of mature eggs / spawning ([1]; compared with RGP1 or unmodified RGP2, listed as Asol-pQ-RGP): less potent than unmodified AsolRGP2

pEC50 of CRE reporter gene activation in CHO-AsolRXFP/LGR3 cells [2]: 7.8 pEC50 | potency (EC50) of CRE reporter gene activation in CHO-AsolRXFP/LGR3 cells [2]: 16 nM
Substance: Acanthaster cf. solaris relaxin-like gonad-stimulating peptide 1 (ligand)

EC50 of peptide-induced luminescence (GFP-apoaequorin G5A, chimeric G-protein GqS5) in CHO-K1 cells transfected with modified ArubRXFP/LGR3 [3]: 510 nM | EC50 of peptide-induced luminescence (GFP-apoaequorin G5A, chimeric G-protein GqS5) in CHO-K1 cells transfected with ArubRXFP/LGR3, 10^-14 to 10^-5 M [4]: 383 nM
Substance: Asterias rubens relaxin-like gonad-stimulating peptide 2 (ligand)

Substance: recombinant human relaxin-2 [H2 relaxin, reference compound]
cAMP activity / CRE reporter gene activation [5]: No response
